Laboratory results published in patent publication US11254745 (CROWN BIOSCIENCE, dated 2022).

Assays:
[1] = target: T1, human CD4 on 293T cells stably expressing CD4 (CD4-293T) (human, UniProt P01730 26-458); experiment: FACS, humanized antibody on CD4-293T cells
T1 construct: whole, on cells; also called 293T-CD4 cells; hCD4 (FACS)
Experimental: (§1) Cell binding analysis of anti-CD4 antibody was performed using 293T cell line stably expressing CD4 (CD4-293T). 2*10^5 CD4-293T cells were added to each well of 96-well plate and incubated with the indicated hybridoma supernatant or a serial concentrations of purified antibody (starting from 20 μg/mL) at 4° C. for 1 h. After the cells were washed three times with FACS buffer, the secondary antibody (PE Goat anti-mouse: 1:200) was added to the cells at 100 μl/well, and incubated at 4° C. for 40 min. Cells were washed three times with FACS buffer and analyzed by FACS Array. The binding EC50 of purified antibody was calculated with GraphPad Prism 5.
(§2) DNA encoding humanized 2B6, 29B7 and MT412 antibody light chain and heavy chain was synthesized and cloned to the expression vector pcDNA3.1 (Invitrogen, Cat. No: V-790). Freestyle 293 cells (200 mL at 10^6/mL) were transfected with 100 µg of each of the humanized heavy and light chain expression plasmids and cultured for 6 days at 37° C. The humanized antibody in the supernatant was then purified with Protein-A column (GE healthcare). Binding of the chimeric antibody with CD4 was measured by ELISA (FIG. 6, Table 7) and FACS (FIG. 7, Table 8), and the methods used were similar to those described above in Example 2.

[2] = target: T2, extracellular domain of hCD4 fused with human Fc tag (hCD4-hFc) (human, UniProt P01730 26-396); experiment: ELISA, humanized antibody on hCD4, method similar to Example 2
T2 construct: extracellular domain; also called human CD4-hFc; hCD4 (ELISA); not shown: human Fc tag
Experimental: Example 2: Selection of the Anti-hCD4 Hybridoma Antibodies Based on Binding and Gene Reporter Assays The binding interaction between hybridoma antibody and human CD4-hFc was measured by ELISA. 96-well plates (Costar, Cat. No:9018) were coated with 100 μL of 2 μg/ml CD4-hFc (CrownBio) in PBS buffer (Hyclone, Cat. No: SH30256.01B) overnight at 4° C. The wells were aspirated and non-specific binding sites were blocked by adding 200 μL of blocking buffer containing 1% (w/v) of bovine serum albumin (BSA, Roche, Cat. No: 738328) and incubating for 1 hour at 37° C. After the plates are washed three times with PBS buffer containing 0.05% (v/v) Tween™ 20 (Sigma, Cat. No: P1379), 100 μL hybridoma supernatant or a serial concentrations of purified antibody (starting from 20 μg/mL) diluted in blocking buffer was added to each well and incubated at room temperature for 1 hour. The plates were washed and incubated with 100 μL/well of Goat anti-Mouse IgG (Thermo, Cat. No:31432) in blocking buffer for 60 min. After the plates were washed, 100 μL/well of substrate solution TMB (eBioscience, Cat. No:00-4201-56) was added, and the plates were incubated for 2 min at room temperature before 100 μL/well of 2N H_2SO_4 was added to stop the reaction. The colorimetric signals were monitored at 450 nm using a SpectraMax Plus microplate reader (Molecular Devices). For the purified antibody, data were analyzed using GraphPad Prism 5 to calculated the $EC50$.
as §2

[3] = target: T3, extracellular domain of hCD4 fused with a histidine tag (hCD4-HisTag) (human, UniProt P01730 26-396); experiment: Biacore T200 SPR, antibody captured on Protein A, CD4-HisTag analyte, 1:1 fit, 25 C
T3 construct: extracellular domain; also called human CD4-HisTag; not shown: histidine tag
Experimental: The binding kinetics between CD4 and CD4 antibodies were measured by Biacore™ analysis, which was performed at 25° C. on a Biacore™ T200 instrument. Protein A (GE, Cat. No:29139131-AA) was diluted with 10 mM pH 5.0 sodium acetate and immobilized onto reference and experiment flow cells of a CM5 biosensor chip to around 15000 RU using an amine coupling kit (GE, BR10050). In the beginning of each cycle, diluted test antibody (1.5 µg/mL) was injected over experiment flow cell for 1 minute to be captured. CD4-HisTag analyte series were prepared by diluting the stocks with running buffer to 100 nM followed by 2-fold serial dilution in the same buffer down to 0.78 nM. Analytes were injected in series over the reference and experiment flow cells for 3 minutes at a flow rate of 30
μL/minute. Running buffer (PBS with 0.05% P20) was allowed to flow over for 10 minutes at a flow rate of 30 μL/minute. At the end of each cycle, the biosensor surface was regenerated with 3-minute injection of 10 mM pH 2.0 Glycine-HCl buffer at a flow rate of 10 μL/minute. For each analyte sample injection (i.e., each cycle), binding responses obtained from the experimental biosensor surface were double referenced by subtracting simultaneously recorded responses from the reference surface followed by additional subtraction of responses from a single referenced running buffer sample. The association and dissociation rate constants (ka and kd) were determined simultaneously by fitting double-referenced sensorgrams of the entire titration series to Langmuir model (1:1) using Biaevaluation software. The dissociation constant, KD, was calculated from the determined rate constants by the equation KD=kd/ka.

[4] = target: T2, extracellular domain of hCD4 fused with …; experiment: ELISA on human CD4, OD450; table under the graph (unit from the graph's axis); Table 7 of the text gives this value to MT412
Experimental: (§3) Example 2: Selection of the Anti-hCD4 Hybridoma Antibodies Based on Binding and Gene Reporter Assays The binding interaction between hybridoma antibody and human CD4-hFc was measured by ELISA. 96-well plates (Costar, Cat. No:9018) were coated with 100 μL of 2 μg/ml CD4-hFc (CrownBio) in PBS buffer (Hyclone, Cat. No: SH30256.01B) overnight at 4° C. The wells were aspirated and non-specific binding sites were blocked by adding 200 μL of blocking buffer containing 1% (w/v) of bovine serum albumin (BSA, Roche, Cat. No: 738328) and incubating for 1 hour at 37° C. […] The colorimetric signals were monitored at 450 nm using a SpectraMax Plus microplate reader (Molecular Devices). For the purified antibody, data were analyzed using GraphPad Prism 5 to calculated the $EC50$.
(§4) DNA encoding humanized 2B6, 29B7 and MT412 antibody light chain and heavy chain was synthesized and cloned to the expression vector pcDNA3.1 (Invitrogen, Cat. No: V-790). […] Binding of the chimeric antibody with CD4 was measured by ELISA (FIG. 6, Table 7) and FACS (FIG. 7, Table 8), and the methods used were similar to those described above in Example 2.

[5] = target: T1, human CD4 on 293T cells stably …; experiment: FACS on 293T cells expressing human CD4, MFI; table under the graph (unit from the graph's axis); Table 8 of the text gives this value to MT412
Experimental: as §1, §2

[6] = target: T2, extracellular domain of hCD4 fused with …; experiment: ELISA on human CD4, OD450; table under the graph (unit from the graph's axis); Table 7 of the text gives this value to 29B7
Experimental: as §3, §4

[7] = target: T1, human CD4 on 293T cells stably …; experiment: FACS on 293T cells expressing human CD4, MFI; table under the graph (unit from the graph's axis); Table 8 of the text gives this value to 29B7
Experimental: as §1, §2

[8] = target: T2, extracellular domain of hCD4 fused with …; experiment: ELISA on human CD4, OD450; table under the graph (unit from the graph's axis); Table 7 of the text gives this value to 2B6
Experimental: as §3, §4

[9] = target: T1, human CD4 on 293T cells stably …; experiment: FACS on 293T cells expressing human CD4, MFI; table under the graph (unit from the graph's axis); Table 8 of the text gives this value to 2B6
Experimental: as §1, §2

EC50 [1] [µg/mL]	EC50 [2] [µg/mL]	Kd [3] [nM]	koff [3] [s⁻¹]	kon [3] [M⁻¹ s⁻¹]	EC50 [4] [µg/mL]	EC50 [5] [µg/mL]	EC50 [6] [µg/mL]	EC50 [7] [µg/mL]	EC50 [8] [µg/mL]	EC50 [9] [µg/mL]	Binder
0.182	0.0056	0.444	0.000457	1.03e+06	0.0116	0.183					29B7 humanized anti-CD4 antibody (antibody, V domains shown, Expressed as heavy and light chains in Freestyle 293 cells; The description says only that humanized antibodies may have human IgG1 and human kappa constant regions; also called Humanized 29B7) VH: QVQLVQSGAEVKKPGASVKVSCKASGDSLNTHWMHWVRQAPGQRLEWIGYINPYTGSGEYSQKFKGRATLTADISASTAYMELSSLRSEDTAVYYCAYDSTGAMDYWGQGTLVTVSS VL: DIQMTQSPSSLSASVGDRVTITCKASQDINRYLSWFQQKPGKAPKTPIYRADRSVDGVPSRFSGSGSGQDYTLTISSLQPEDFATYYCQQYDEFPYTFGQGTKLEIK
0.211	0.0116	0.152	7.89e-05	520000			0.0056	0.182			2B6 humanized anti-CD4 antibody (antibody, V domains shown, Expressed as heavy and light chains in Freestyle 293 cells; also called Humanized 2B6) VH: QVQLQESGPGLVKPSETLSLTCTVSGDSITSGYWNWIRQPPGKGLEFLGYISFADTTNYNPSLKSRVTISRDTSKNQFSLKLSSVTAADTAVYYCARDDYGYYAMDYWGQGTLVTVSS VL: DIQLTQSPSSLSASVGDRVTITCRASQDIDNYLNWYQQKPGKAPKLLIYYTSRLHSGVPSRFSGSGSGTDYTLTISSLQPEDFATYYCQQGNTLPTFGQGTKLEIK
0.183	0.0116	1.8	0.00199	1.11e+06					0.0116	0.211	MT412 humanized anti-CD4 antibody (antibody, V domains shown, Expressed as heavy and light chains in Freestyle 293 cells; The description says only that humanized antibodies may have human IgG1 and human kappa constant regions; also called Humanized MT412) VH: QIQLVQSGSELKKPGASVKVSCKASGYTFTDYSMHWVRQAPGQGLEWMGWINTETGEPTYADDFKGRFVFSLDTSVSTAYLQISSLKAEDTAVYYCAREDYYGHDGFLYWGQGTLVTVSS VL: DIQMTQSPSFLSASVGDRVTITCKASQDVVTTVAWYQQKPGKAPKLLIYWASLRHTGVPSRFSGSGSGTEFTLTISSLQPEDFATYFCQQYSSYPYTFGQGTKLEIKR
